Where a chain is given by its changes, count along the chain named.

B1: NRC3_wobSeed97_DR4_A6C_o1 (dsDNA)
DNA 1: GCCAACCTAGGTCACGAAAGGTCAAAGTCGAATGACGCGATTGACAGCGTAGAATGAAGG
DNA 2: CCTTCATTCTACGCTGTCAATCGCGTCATTCGACTTTGACCTTTCGTGACCTAGGTTGGC
B2: NRC3_wobSeed102_DR4_T18G_o1 (dsDNA)
DNA 1: GCCCTAGCAGGCCAATCGGGGTCACTCAAGGCTTGAGCGATTGACAGCGTAGAATGAAGG
DNA 2: CCTTCATTCTACGCTGTCAATCGCTCAAGCCTTGAGTGACCCCGATTGGCCTGCTAGGGC
B3: NRC3_wobSeed25_DR1_C26A_o1 (dsDNA)
DNA 1: GCCAAACTAGGTCAAAGGTCAAAGTAGAGCCAACCAGCGATTGACAGCGTAGAATGAAGG
DNA 2: CCTTCATTCTACGCTGTCAATCGCTGGTTGGCTCTACTTTGACCTTTGACCTAGTTTGGC
B4: NRC3_wobSeed106_DR4_G14A_o1 (dsDNA)
DNA 1: GCCTCGAAAGGTCAGTTGAGGTGAGTATACGGATAAGCGATTGACAGCGTAGAATGAAGG
DNA 2: CCTTCATTCTACGCTGTCAATCGCTTATCCGTATACTCACCTCAACTGACCTTTCGAGGC
B5: NRC3_wobSeed88_DR3_C13T_o1 (dsDNA)
DNA 1: GCTAGCCTAGGTTATGCGGGCCAGTATAGTGTCGGCGCGATTGACAGCGTAGAATGAAGG
DNA 2: CCTTCATTCTACGCTGTCAATCGCGCCGACACTATACTGGCCCGCATAACCTAGGCTAGC
B6: NRC3_random_hg19_436_o1 (dsDNA)
DNA 1: GCATAGTTTCCAGCTTCATCCATGTCTCTGCAAAGAGCGATTGACAGCGTAGAATGAAGG
DNA 2: CCTTCATTCTACGCTGTCAATCGCTCTTTGCAGAGACATGGATGAAGCTGGAAACTATGC
B7: NRC3_wobSeed25_DR1_T25C_o1 (dsDNA)
DNA 1: B3 DNA 1 with T25C, A26C
DNA 2: B3 DNA 2 with T35G, A36G
B8: NRC3_wobSeed121_DR5_G18T_o1 (dsDNA)
DNA 1: GCCAAACTAGGTCACCGTAAGGTCAAAGTCCGCATGGCGATTGACAGCGTAGAATGAAGG
DNA 2: CCTTCATTCTACGCTGTCAATCGCCATGCGGACTTTGACCTTACGGTGACCTAGTTTGGC
B9: NRC3_random_hg19_228_o1 (dsDNA)
DNA 1: GCCACCGTGTTAGCCAGGATGGTCTCGATCTCCTGAGCGATTGACAGCGTAGAATGAAGG
DNA 2: CCTTCATTCTACGCTGTCAATCGCTCAGGAGATCGAGACCATCCTGGCTAACACGGTGGC
B10: NRC3_wobSeed18_DR0_C13G_o1 (dsDNA)
DNA 1: GCGATACAGGGTGAAGGCCAGAGTACGCGTATTGATGCGATTGACAGCGTAGAATGAAGG
DNA 2: CCTTCATTCTACGCTGTCAATCGCATCAATACGCGTACTCTGGCCTTCACCCTGTATCGC
B11: NRC3_wobSeed42_DR1_G9T_o1 (dsDNA)
DNA 1: GCTATACATGGTCAAAGGCCAGAGTACGAATGTCGAGCGATTGACAGCGTAGAATGAAGG
DNA 2: CCTTCATTCTACGCTGTCAATCGCTCGACATTCGTACTCTGGCCTTTGACCATGTATAGC
B12: NRC3_random_hg19_407_o1 (dsDNA)
DNA 1: GCGAGACATGAGATTTGGTTCTAGCTACACTCTTCAGCGATTGACAGCGTAGAATGAAGG
DNA 2: CCTTCATTCTACGCTGTCAATCGCTGAAGAGTGTAGCTAGAACCAAATCTCATGTCTCGC
B13: NRC3_random_hg19_242_o1 (dsDNA)
DNA 1: GCCAGCAGAGAACCCAGTGGAACATGAGCCTATACAGCGATTGACAGCGTAGAATGAAGG
DNA 2: CCTTCATTCTACGCTGTCAATCGCTGTATAGGCTCATGTTCCACTGGGTTCTCTGCTGGC
B14: NRC3_wobSeed112_DR4_G11C_o1 (dsDNA)
DNA 1: GCTAGCCTAGCTCAGATCGGGCCAGTATACGCTATAGCGATTGACAGCGTAGAATGAAGG
DNA 2: CCTTCATTCTACGCTGTCAATCGCTATAGCGTATACTGGCCCGATCTGAGCTAGGCTAGC
B15: NRC3_random_hg19_166_o1 (dsDNA)
DNA 1: GCAATGACATGATCATAGCTCACTGCAGCCTTGAATGCGATTGACAGCGTAGAATGAAGG
DNA 2: CCTTCATTCTACGCTGTCAATCGCATTCAAGGCTGCAGTGAGCTATGATCATGTCATTGC
B16: NRC3_random_hg19_82_o1 (dsDNA)
DNA 1: GCCATACAGACTCTAGTCATTTCAAATGTTCTTGCTGCGATTGACAGCGTAGAATGAAGG
DNA 2: CCTTCATTCTACGCTGTCAATCGCAGCAAGAACATTTGAAATGACTAGAGTCTGTATGGC
B17: NRC3_random_hg19_259_o1 (dsDNA)
DNA 1: GCCCTGAGTCAGTAGAACCAGCTGAGAGATTGGATTGCGATTGACAGCGTAGAATGAAGG
DNA 2: CCTTCATTCTACGCTGTCAATCGCAATCCAATCTCTCAGCTGGTTCTACTGACTCAGGGC
B18: NRC3_wobSeed120_DR4_G20C_o1 (dsDNA)
DNA 1: GCCCGAGTAGGTTACGAGGCGGCATTCAGTGCGAATGCGATTGACAGCGTAGAATGAAGG
DNA 2: CCTTCATTCTACGCTGTCAATCGCATTCGCACTGAATGCCGCCTCGTAACCTACTCGGGC
B19: NRC3_random_hg19_98_o1 (dsDNA)
DNA 1: GCGCCAGGCTGGTCTCGACCTCCTGACTTTGTGATCGCGATTGACAGCGTAGAATGAAGG
DNA 2: CCTTCATTCTACGCTGTCAATCGCGATCACAAAGTCAGGAGGTCGAGACCAGCCTGGCGC
B20: NRC3_random_hg19_8_o1 (dsDNA)
DNA 1: GCGCTGAAACTGGATCCCTTCCTTACACCTTACACAGCGATTGACAGCGTAGAATGAAGG
DNA 2: CCTTCATTCTACGCTGTCAATCGCTGTGTAAGGTGTAAGGAAGGGATCCAGTTTCAGCGC
B21: NRC3_random_hg19_446_o1 (dsDNA)
DNA 1: GCACTGAACAACCTGATCCTGAATGACTACAGGGTAGCGATTGACAGCGTAGAATGAAGG
DNA 2: CCTTCATTCTACGCTGTCAATCGCTACCCTGTAGTCATTCAGGATCAGGTTGTTCAGTGC
B22: NRC3_random_hg19_48_o1 (dsDNA)
DNA 1: GCTAGTCCAGCTGGCTGGAGACTCATGGAAGAACAGGCGATTGACAGCGTAGAATGAAGG
DNA 2: CCTTCATTCTACGCTGTCAATCGCCTGTTCTTCCATGAGTCTCCAGCCAGCTGGACTAGC
B23: NRC3_random_hg19_26_o1 (dsDNA)
DNA 1: GCACTCAATACACCAAAGCACATCCTCATCAGACTCGCGATTGACAGCGTAGAATGAAGG
DNA 2: CCTTCATTCTACGCTGTCAATCGCGAGTCTGATGAGGATGTGCTTTGGTGTATTGAGTGC
B24: NRC3_random_hg19_78_o1 (dsDNA)
DNA 1: GCTATGACTGGTTACACTGGAAACCTAGAATGAACAGCGATTGACAGCGTAGAATGAAGG
DNA 2: CCTTCATTCTACGCTGTCAATCGCTGTTCATTCTAGGTTTCCAGTGTAACCAGTCATAGC
B25: NRC3_random_hg19_288_o1 (dsDNA)
DNA 1: GCCCTGGTTCAAGCGATTCTCCTGCCTCAGCCTCCTGCGATTGACAGCGTAGAATGAAGG
DNA 2: CCTTCATTCTACGCTGTCAATCGCAGGAGGCTGAGGCAGGAGAATCGCTTGAACCAGGGC
B26: NRC3_random_hg19_264_o1 (dsDNA)
DNA 1: GCTCATCAGTCTAATGATGCTGTTGGTCCAGGGAGCGCGATTGACAGCGTAGAATGAAGG
DNA 2: CCTTCATTCTACGCTGTCAATCGCGCTCCCTGGACCAACAGCATCATTAGACTGATGAGC

Chain of PPARa:RXRa (Q07869 whole entry, chain 1 of 2): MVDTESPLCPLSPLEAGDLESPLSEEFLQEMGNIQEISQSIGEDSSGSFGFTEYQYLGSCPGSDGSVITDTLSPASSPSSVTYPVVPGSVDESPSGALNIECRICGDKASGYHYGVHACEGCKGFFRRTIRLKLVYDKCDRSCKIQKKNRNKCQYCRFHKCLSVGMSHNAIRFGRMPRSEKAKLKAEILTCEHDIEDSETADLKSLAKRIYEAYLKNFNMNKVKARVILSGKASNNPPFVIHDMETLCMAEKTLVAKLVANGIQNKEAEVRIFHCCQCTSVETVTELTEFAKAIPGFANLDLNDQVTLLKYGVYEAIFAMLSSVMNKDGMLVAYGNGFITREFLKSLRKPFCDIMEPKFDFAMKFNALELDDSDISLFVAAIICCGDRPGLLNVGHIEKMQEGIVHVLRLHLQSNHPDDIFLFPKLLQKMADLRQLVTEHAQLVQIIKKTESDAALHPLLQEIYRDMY
Chain of PPARa:RXRa (P19793 whole entry, chain 2 of 2): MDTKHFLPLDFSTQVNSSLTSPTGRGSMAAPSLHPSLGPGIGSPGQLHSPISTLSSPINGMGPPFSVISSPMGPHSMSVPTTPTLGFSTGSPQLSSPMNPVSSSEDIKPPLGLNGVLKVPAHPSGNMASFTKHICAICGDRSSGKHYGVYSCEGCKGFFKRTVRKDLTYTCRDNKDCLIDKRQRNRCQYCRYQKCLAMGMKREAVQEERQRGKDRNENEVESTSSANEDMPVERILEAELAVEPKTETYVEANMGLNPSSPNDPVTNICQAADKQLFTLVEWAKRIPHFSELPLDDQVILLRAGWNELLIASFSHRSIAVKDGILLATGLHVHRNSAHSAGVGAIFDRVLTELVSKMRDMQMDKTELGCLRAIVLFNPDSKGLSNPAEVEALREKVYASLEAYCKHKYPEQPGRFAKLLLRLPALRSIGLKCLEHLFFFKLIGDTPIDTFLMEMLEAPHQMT
Chain of THRa:RXRa (P10827 other isoform, or with tags, fused parts or gaps, chain 1 of 2): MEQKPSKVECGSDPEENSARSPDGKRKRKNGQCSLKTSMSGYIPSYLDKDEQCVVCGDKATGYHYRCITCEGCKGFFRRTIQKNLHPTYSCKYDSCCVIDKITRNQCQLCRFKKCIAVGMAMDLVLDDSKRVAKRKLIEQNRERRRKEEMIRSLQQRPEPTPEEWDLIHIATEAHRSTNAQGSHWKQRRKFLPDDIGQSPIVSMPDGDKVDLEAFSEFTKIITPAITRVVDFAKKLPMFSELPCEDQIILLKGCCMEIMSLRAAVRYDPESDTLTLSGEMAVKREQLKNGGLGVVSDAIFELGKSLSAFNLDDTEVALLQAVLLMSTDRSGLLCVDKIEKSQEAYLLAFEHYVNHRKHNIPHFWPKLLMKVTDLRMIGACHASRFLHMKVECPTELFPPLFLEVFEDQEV
Chain of THRa:RXRa (P19793 whole entry, chain 2 of 2): as the sequence (P19793 whole entry, chain 2 of 2) above
Chain of FXR:RXRa (Q96RI1 whole entry, chain 1 of 2): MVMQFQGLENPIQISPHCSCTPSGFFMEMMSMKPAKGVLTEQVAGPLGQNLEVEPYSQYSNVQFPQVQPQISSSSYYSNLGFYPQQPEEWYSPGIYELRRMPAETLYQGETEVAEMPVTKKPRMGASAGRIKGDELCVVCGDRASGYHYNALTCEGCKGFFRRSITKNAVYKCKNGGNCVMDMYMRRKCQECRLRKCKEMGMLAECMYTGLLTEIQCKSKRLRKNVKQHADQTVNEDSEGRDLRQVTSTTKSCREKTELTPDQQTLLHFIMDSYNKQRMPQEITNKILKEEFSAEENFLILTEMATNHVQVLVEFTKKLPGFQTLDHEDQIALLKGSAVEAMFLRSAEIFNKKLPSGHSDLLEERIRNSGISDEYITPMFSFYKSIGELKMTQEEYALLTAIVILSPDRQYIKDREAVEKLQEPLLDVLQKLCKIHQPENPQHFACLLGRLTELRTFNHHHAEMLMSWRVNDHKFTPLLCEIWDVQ
Chain of FXR:RXRa (P19793 whole entry, chain 2 of 2): as the sequence (P19793 whole entry, chain 2 of 2) above

One series deals with RARb:RXRa (Homo sapiens, UniProt P10826;P19793 full;full). As to the kind of experiment: no ligand; PBM; 270 nM : 90 nM RXRa; PBS pH 7.4, 2% milk, 0.02% Triton X-100, 1 mM DTT, BSA, 0.4 mg/ml salmon testes DNA. The conditions noted are these: tags: His kept;His cleaved; copies: 1;1; label: surface-attached array probe. A digest of the protocol: (§1)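 Scanned fluorescence from custom Agilent 4×180K protein-binding microarrays was regression-normalized. Binding z-scores use random background probes as reference. Ligand-free nuclear receptor dimers were incubated on the arrays for 1 h and detected with antibodies against each partner (one per run).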
Chain of RARb:RXRa (P10826 whole entry, chain 1 of 2): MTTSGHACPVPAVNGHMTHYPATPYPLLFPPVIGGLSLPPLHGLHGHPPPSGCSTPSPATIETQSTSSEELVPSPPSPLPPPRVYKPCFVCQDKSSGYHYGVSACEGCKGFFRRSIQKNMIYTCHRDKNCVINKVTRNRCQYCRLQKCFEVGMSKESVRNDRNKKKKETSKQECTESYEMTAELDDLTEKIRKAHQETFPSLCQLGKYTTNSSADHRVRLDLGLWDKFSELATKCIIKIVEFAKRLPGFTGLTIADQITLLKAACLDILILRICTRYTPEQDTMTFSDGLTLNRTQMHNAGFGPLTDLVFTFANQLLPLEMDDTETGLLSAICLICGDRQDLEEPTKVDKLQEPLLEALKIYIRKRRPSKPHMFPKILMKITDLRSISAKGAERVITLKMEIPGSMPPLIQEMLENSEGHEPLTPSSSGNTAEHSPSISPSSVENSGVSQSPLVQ
Chain of RARb:RXRa (P19793 whole entry, chain 2 of 2): as the sequence (P19793 whole entry, chain 2 of 2) above
With B1, the binding signal was 6.29 PBM z-score against 500 random probes.
For B2, the binding signal was 3.05 PBM z-score against 500 random probes.
For the molecule B3, the binding signal was 6.19 PBM z-score against 500 random probes.
On the same count and under the same terms, the figure for B4 is 5.79 PBM z-score against 500 random probes.

Another series addresses PPARa:RXRa (Homo sapiens, UniProt Q07869;P19793 full;full). The description is as above. The conditions noted are these: tags: GST kept;His cleaved; copies: 1;1; label: surface-attached array probe. A digest of the protocol:
as §1
Turning to B5, the binding signal is 0.03 PBM z-score against 500 random probes.
On the same count and under the same terms, as for B6, the figure is -0.03 PBM z-score against 500 random probes; as for B7, 8.1 PBM z-score against 500 random probes; as for B8, 6.59 PBM z-score against 500 random probes.

A further series has as its target FXR:RXRa (Homo sapiens, UniProt Q96RI1;P19793 full;full). Described as above. The conditions noted are these: tags: His kept;His cleaved; copies: 1;1; label: surface-attached array probe. A digest of the protocol:
as §1
As to B9, the binding signal is -0.45 PBM z-score against 500 random probes.

The target in the next series is RARg:RXRa (Homo sapiens, UniProt P13631;P19793 full;full). The series is described as above. The conditions noted are these: tags: His kept;His cleaved; copies: 1;1; label: surface-attached array probe. A digest of the protocol: as §1
Chain of RARg:RXRa (P13631 whole entry, chain 1 of 2): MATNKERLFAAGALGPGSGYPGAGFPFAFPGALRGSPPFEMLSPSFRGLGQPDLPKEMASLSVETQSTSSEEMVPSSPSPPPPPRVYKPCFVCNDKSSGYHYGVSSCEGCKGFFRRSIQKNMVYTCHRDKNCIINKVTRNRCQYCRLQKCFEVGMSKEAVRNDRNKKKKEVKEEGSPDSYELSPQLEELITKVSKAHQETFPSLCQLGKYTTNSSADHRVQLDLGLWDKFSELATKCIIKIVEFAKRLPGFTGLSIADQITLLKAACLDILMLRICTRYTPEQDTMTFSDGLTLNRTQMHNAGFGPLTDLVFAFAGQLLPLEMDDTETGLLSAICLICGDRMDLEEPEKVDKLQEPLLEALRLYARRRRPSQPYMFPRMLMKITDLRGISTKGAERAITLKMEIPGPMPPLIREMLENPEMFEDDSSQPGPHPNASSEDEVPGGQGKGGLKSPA
Chain of RARg:RXRa (P19793 whole entry, chain 2 of 2): as the sequence (P19793 whole entry, chain 2 of 2) above
In the case of B10, the binding signal was 0.44 PBM z-score against 500 random probes.

The next series addresses THRa:RXRa (Homo sapiens, UniProt P10827;P19793 full;full). The series can be described thus: no ligand; PBM; 90 nM : 90 nM RXRa; PBS pH 7.4, 2% milk, 0.02% Triton X-100, 1 mM DTT, BSA, 0.4 mg/ml salmon testes DNA. The conditions noted are these: tags: His kept;His cleaved; copies: 1;1; label: surface-attached array probe.
In the case of B11, the binding signal was 0.08 PBM z-score against 500 random probes.
Regarding B12, the binding signal is -0.37 PBM z-score against 500 random probes.
Same read-out and setting: the figure for B13 is -0.39 PBM z-score against 500 random probes; for B5 it is 0.05 PBM z-score against 500 random probes; for B6 it is 0.27 PBM z-score against 500 random probes.
In the case of B14, the binding signal was -0.54 PBM z-score against 500 random probes.
In the case of B1, the binding signal was 5.6 PBM z-score against 500 random probes.
The same measure, in the same setting: the figure for B2 is 4.94 PBM z-score against 500 random probes.
For B15, the binding signal is -0.62 PBM z-score against 500 random probes.
The same measure, in the same setting: the figure for B16 is 0.12 PBM z-score against 500 random probes; for B10 it is 0.38 PBM z-score against 500 random probes.
On the same count and under the same terms, the figure for B17 is -0.45 PBM z-score against 500 random probes; for B18 it is -0.27 PBM z-score against 500 random probes.
Still for that read-out and setting: the figure for B7 is 5.19 PBM z-score against 500 random probes.
For the molecule B3, the binding signal is 5.12 PBM z-score against 500 random probes.
On the same count and under the same terms, the figure for B9 is -1.6 PBM z-score against 500 random probes; for B8 it is 5.33 PBM z-score against 500 random probes.
On the same count and under the same terms, as for B19, the figure is -0.14 PBM z-score against 500 random probes; as for B20, -0.12 PBM z-score against 500 random probes; as for B21, 0.09 PBM z-score against 500 random probes.
The same measure, in the same setting: the figure for B22 is -1.43 PBM z-score against 500 random probes.
B23: the binding signal is 0.33 PBM z-score against 500 random probes.
With B24, the binding signal was 0.42 PBM z-score against 500 random probes.
Consider B25, for which the binding signal was 0.5 PBM z-score against 500 random probes.
On the same count and under the same terms, the figure for B4 is 5.33 PBM z-score against 500 random probes.
On the same count and under the same terms, as for B26, the figure is -0.53 PBM z-score against 500 random probes.

The values are drawn from PMC6555819, “Comprehensive study of nuclear receptor DNA binding provides a revised framework for understanding receptor specificity”.
